Source: article PMC11969024 (2025)

B1: peptide HD2 (from tick evasin EVA4) / CCL11 (biotinylated, synthetic) (parent complex)
chain 1: EEDDYTAYAPLTCYFT
chain 2: not shown

Variants of: B1

Row | Variant | enrichment
1 | chain 1 C13A | -8.03 log2 (difference from the parental peptide)
2 | chain 1 C13H | -9.22 log2 (difference from the parental peptide)
3 | chain 1 Y8M | -6.75 log2 (difference from the parental peptide)
4 | chain 1 Y8L | -9.35 log2 (difference from the parental peptide)
5 | chain 1 Y8V | -8.13 log2 (difference from the parental peptide)
6 | chain 1 Y8F | 1.62 log2 (difference from the parental peptide)
7 | chain 1 Y5W | 1.88 log2 (difference from the parental peptide)
8 | chain 1 Y5V | -5.26 log2 (difference from the parental peptide)
9 | chain 1 Y5T | -4.78 log2 (difference from the parental peptide)
10 | chain 1 Y5D | -3.62 log2 (difference from the parental peptide)
11 | chain 1 D4E | -0.216 log2 (difference from the parental peptide)
12 | chain 1 D4Q | -3.06 log2 (difference from the parental peptide)
13 | chain 1 D4R | -6.08 log2 (difference from the parental peptide)
14 | chain 1 D4N | -2.87 log2 (difference from the parental peptide)
15 | chain 1 D4A | -3.23 log2 (difference from the parental peptide)
16 | chain 1 D4F | -4.42 log2 (difference from the parental peptide)
17 | chain 1 D4L | -4.32 log2 (difference from the parental peptide)
18 | chain 1 D4M | -3.45 log2 (difference from the parental peptide)
19 | chain 1 D3P | -3.5 log2 (difference from the parental peptide)
20 | chain 1 D3N | -2.05 log2 (difference from the parental peptide)
21 | chain 1 D3S | -2.82 log2 (difference from the parental peptide)
22 | chain 1 D3H | -2.18 log2 (difference from the parental peptide)
23 | chain 1 D3C | -10.5 log2 (difference from the parental peptide)
24 | chain 1 D3W | -3.25 log2 (difference from the parental peptide)
25 | chain 1 D3E | 1.42 log2 (difference from the parental peptide)

Row | Variant | enrichment
26 | chain 1 D3L | -3.39 log2 (difference from the parental peptide)
27 | chain 1 T6D | 3.92 log2 (difference from the parental peptide)
28 | chain 1 T6E | 3.27 log2 (difference from the parental peptide)
29 | chain 1 T6K | -1.28 log2 (difference from the parental peptide)
30 | chain 1 T6L | -2.13 log2 (difference from the parental peptide)
31 | chain 1 T6F | -4.68 log2 (difference from the parental peptide)
32 | chain 1 T6Q | 0.834 log2 (difference from the parental peptide)
33 | chain 1 T6A | 1.96 log2 (difference from the parental peptide)
34 | chain 1 T12H | -1.8 log2 (difference from the parental peptide)
35 | chain 1 T12Y | -1.75 log2 (difference from the parental peptide)
36 | chain 1 T12A | -2.95 log2 (difference from the parental peptide)
37 | chain 1 T12M | -1.76 log2 (difference from the parental peptide)
38 | chain 1 T12Q | -1.12 log2 (difference from the parental peptide)
39 | chain 1 A9M | -3.46 log2 (difference from the parental peptide)
40 | chain 1 A9G | -4.51 log2 (difference from the parental peptide)
41 | chain 1 A9K | -4.4 log2 (difference from the parental peptide)
42 | chain 1 A9L | -7.13 log2 (difference from the parental peptide)
43 | chain 1 L11C | 1.22 log2 (difference from the parental peptide)
44 | chain 1 L11H | 0.483 log2 (difference from the parental peptide)
45 | chain 1 L11P | -8.67 log2 (difference from the parental peptide)
46 | chain 1 L11M | 2.06 log2 (difference from the parental peptide)
47 | chain 1 L11D | -6.85 log2 (difference from the parental peptide)
48 | chain 1 E1V | -1.08 log2 (difference from the parental peptide)
49 | chain 1 E1A | -0.354 log2 (difference from the parental peptide)
50 | chain 1 E1K | -2.4 log2 (difference from the parental peptide)

Row | Variant | enrichment
51 | chain 1 E1H | -1.51 log2 (difference from the parental peptide)
52 | chain 1 E1P | -1 log2 (difference from the parental peptide)
53 | chain 1 E1F | -2.2 log2 (difference from the parental peptide)
54 | chain 1 E1R | -2.69 log2 (difference from the parental peptide)
55 | chain 1 A7G | -1.16 log2 (difference from the parental peptide)
56 | chain 1 A7V | -0.751 log2 (difference from the parental peptide)
57 | chain 1 A7T | -0.43 log2 (difference from the parental peptide)
58 | chain 1 A7Y | -0.616 log2 (difference from the parental peptide)
59 | chain 1 Y14E | -7.34 log2 (difference from the parental peptide)
60 | chain 1 Y14Q | -4.82 log2 (difference from the parental peptide)
61 | chain 1 E2P | -2.92 log2 (difference from the parental peptide)
62 | chain 1 P10L | -9.08 log2 (difference from the parental peptide)
63 | chain 1 P10Q | -3.8 log2 (difference from the parental peptide)
64 | chain 1 T16R | -1.09 log2 (difference from the parental peptide)
65 | chain 1 T16Y | -0.239 log2 (difference from the parental peptide)
66 | chain 1 T16M | 0.752 log2 (difference from the parental peptide)
67 | chain 1 T16F | -0.46 log2 (difference from the parental peptide)
68 | chain 1 T16H | 0.297 log2 (difference from the parental peptide)
69 | chain 1 F15S | 0.275 log2 (difference from the parental peptide)
70 | chain 1 F15H | -0.581 log2 (difference from the parental peptide)
71 | chain 1 F15Y | 0.26 log2 (difference from the parental peptide)
72 | chain 1 F15W | -1.47 log2 (difference from the parental peptide)
73 | chain 1 F15G | -2.42 log2 (difference from the parental peptide)
74 | chain 1 F15P | -0.525 log2 (difference from the parental peptide)
75 | chain 1 F15C | -4.03 log2 (difference from the parental peptide)
